Five molecules from paper PMC11272076 (Journal of Experimental Botany, 2024) can be followed below.

Positions count from the first letter of the chain named.

In one assay the target is dansylated CaM (petunia, UniProt P62199 1-149, covalent dansyl label (site not stated)). Description: steady-state dansyl fluorescence spectroscopy.
The next assay concerns the target T1, CLuc–CML24 (Arabidopsis thaliana, UniProt P25070 1-161).
T1 sequence: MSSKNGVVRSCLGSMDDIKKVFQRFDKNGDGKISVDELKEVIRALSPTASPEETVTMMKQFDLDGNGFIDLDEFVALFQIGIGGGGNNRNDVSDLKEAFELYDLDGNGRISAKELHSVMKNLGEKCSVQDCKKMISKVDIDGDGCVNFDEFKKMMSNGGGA
Description: split reporter.

The target of the next assay is T2, CLuc–CML13 (Arabidopsis thaliana, UniProt Q94AZ4 1-148).
T2 sequence: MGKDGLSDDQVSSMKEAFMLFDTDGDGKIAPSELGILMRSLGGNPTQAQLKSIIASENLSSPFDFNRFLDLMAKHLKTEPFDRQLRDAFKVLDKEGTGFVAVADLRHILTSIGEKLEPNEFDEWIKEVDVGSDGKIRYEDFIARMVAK
Description: split reporter.

The target of another assay is T3, CLuc–CML14 (Arabidopsis thaliana, UniProt Q8VZ50 1-148).
T3 sequence: T2 sequence with G2S, D8N, Q47E, A48S, A55T, S56T, E117Q, N119S
Nature of the assay: split reporter.

Another assay has as its target T4, dansylated CML13 (Arabidopsis thaliana, UniProt Q94AZ4 1-148, covalent dansyl label (site not stated)).
T4 sequence: T2 sequence
Description: steady-state dansyl fluorescence spectroscopy.

Another assay concerns the target T5, dansylated CML14 (Arabidopsis thaliana, UniProt Q8VZ50 1-148, covalent dansyl label (site not stated)).
T5 sequence: T2 sequence with G2S, D8N, Q47E, A48S, A55T, S56T, E117Q, N119S
Description: steady-state dansyl fluorescence spectroscopy.

On to LQGIVGLQKHFRGHLSRAYFQNM [ATM2-IQ1 synthetic peptide], for which the binding result with dansylated CaM is given as “binds”.

B1: myosin ATM2 neck region (residues 878–967), NLuc fusion (domain or fragment)
chain: RKKVLQGIVGLQKHFRGHLSRAYFQNMRKVTLVLQSYIRGENARRLFDTEAKFHADSVSEASTDELSAVIHLQSAVRGWLARKHFNSMQR
With B1, in the assay with CLuc–CML24, the “fold signal above background (CML42 control)” value (“fold signal above background” for short) was around 2 fold.

B2: myosin ATM1 neck region (residues 848–943), NLuc fusion (domain or fragment)
chain: RTLHGILRVQSSFRGYQARCLLKELKRGISILQSFVRGEKIRKEFAELRRRHKAAATIQSQVKSKIARIQYKGIADASVVIQSAIRGWLVRRCSGD
As for B2, the “fold signal above the CML42 control” value with CLuc–CML13 and in the assay with CLuc–CML14 was around 35 fold throughout. The “fold signal above background” value in the assay with CLuc–CML24 is around 2 fold.

B3: myosin VIII-A neck region (residues 828–930), NLuc fusion (domain or fragment)
chain: RNRTLHGILRLQSYFRGHQARCRLKELKTGITILQSFVRGEKMRKEYTELLQRHRASAAIQSHVKRRIASQQYKATVDASAVIQSAIRGELVRRCAGDIGWLS
For B3, the “fold signal above the CML42 control” value with CLuc–CML13 and with CLuc–CML14 was around 200 fold throughout. Also, the “fold signal above background” value with CLuc–CML24 is around 2 fold.

For LHGILRVQSSFRGYQARCLLKEL [ATM1-IQ1 synthetic peptide], the binding result in the assay with dansylated CaM, in the assay with dansylated CML13 and with dansylated CML14 was “binds” in each case.
